Assay results as given in patent US20200354457A1 (Hoffmann-La Roche, published 2020).
Where a chain is given by its changes, count along the chain named. Several values for one entry are separate records, joined by “and”; a condition that tells them apart may be missing. Equal values may be shown once.

B1: bivalent 9B4 aVH-Fc (Fc fusion)
chain: EVQLVESGGGLVQPGGSLRLSCAASGFNIKDTCIGWVRRAPGKGTELVAEICQDIGYTRYADSVKGRFTISADTSKNTAYLQMNSLRAEDTAVYYCAAVEVAEYFEYWGQGTTVTVSSGGGGSGGGGSDKTHTCPPCPAPEAAGGPSVFLFPPKPKDTLMISRTPEVTCVVVDVSHEDPEVKFNWYVDGVEVHNAKTKPREEQYNSTYRVVSVLTVLHQDWLNGKEYKCKVSNKALGAPIEKTISKAKGQPREPQVYTLPPSRDELTKNQVSLTCLVKGFYPSDIAVEWESNGQPENNYKTTPPVLDSDGSFFLYSKLTVDKSRWQQGNVFSCSVMHEALHNHYTQKSLSLSPGK
B2: bivalent 17D7 aVH-Fc (Fc fusion)
chain: B1 chain with Q53T, V99G, V101G, A102S, E103S, Y104G, E106H
B3: bivalent P11E2 aVH-Fc (Fc fusion)
chain: B1 chain with Q53D, A98S, V99Q, V101H, A102Q, E103W, Y104S, E106K
B4: bivalent P11E9 aVH-Fc (Fc fusion)
chain: B1 chain with Q53H, V99E, V101H, A102V, E103A, Y104S
B5: MCSP-specific disulfide-stabilized aVH clone 2 (VHH)
VHH: EVQLVESGGGLVQPGGSLRLSCAASSFNIKDTYIGWVRRAPGKGTELVASIDCIYGYTRYADSVKGRFTISCDTSKNTAYLQMNSLRAEDTAVYYCAAQGYRLHYWGQGTTVTVSS
notes: Autonomous human VH domain purified from E. coli by IMAC
B6: MCSP-specific disulfide-stabilized aVH clone 44 (VHH)
VHH: EVQLVESGGGLVQPGGSLRLSCAASGFNIKDGYIDWVRRAPGKGTELVASIECTNGRATRYADSVKGRFTISCDTSKNTAYLQMNSLRAEDTAVYYCAYAGIGYYFYYWGQGTTVTVSS
notes: Autonomous human VH domain purified from E. coli
B7: MCSP-specific disulfide-stabilized aVH clone 57.1 (VHH)
VHH: EVQLVESGGGLVQPGGSLRLSCAASGFNIKQNCIEWVRRAPGKGTELVANICHDIGSTRYADSVKGRFTISADTSKNTAYLQMNSLRAEDTAVYYCAAWEQKGFNYWGQGTTVTVSS
notes: as for B6

What follows are binders tested against T1, murine LAG3-Fc antigen (R&D Systems, 3328-L3-050) (murine, UniProt Q61790 24-442) (assay: ELISA using murine LAG3-Fc antigen).
T1 construct: Bought reagent
T1 sequence (looked up): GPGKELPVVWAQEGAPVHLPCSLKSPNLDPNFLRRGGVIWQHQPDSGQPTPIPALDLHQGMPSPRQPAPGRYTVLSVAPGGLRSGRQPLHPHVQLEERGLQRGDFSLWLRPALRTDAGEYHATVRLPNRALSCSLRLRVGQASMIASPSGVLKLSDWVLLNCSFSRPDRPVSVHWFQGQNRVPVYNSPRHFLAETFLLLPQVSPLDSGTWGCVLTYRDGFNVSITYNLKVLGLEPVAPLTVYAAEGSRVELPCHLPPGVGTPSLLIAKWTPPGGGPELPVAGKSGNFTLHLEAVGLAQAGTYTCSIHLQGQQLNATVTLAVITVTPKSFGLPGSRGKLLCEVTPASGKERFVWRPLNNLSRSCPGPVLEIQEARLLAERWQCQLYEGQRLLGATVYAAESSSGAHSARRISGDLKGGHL
B1: no binding. B2: no binding. B3: no binding. B4: no binding.

Each binder was assayed against T2, human LAG3 on recombinant CHO cells (human, UniProt P18627 23-525) (assay: cell ELISA on CHO cells expressing human LAG3;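 also: bivalent Fc-format binders titrated in threefold steps from 6 µg/mL, incubated with the cells 2 h at 4 °C, bound antibody detected by HRP-coupled anti-human IgG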).
T2 construct: whole, on cells; also called Lag3 cells; recombinant CHO cells expressing Lag3
T2 sequence (looked up): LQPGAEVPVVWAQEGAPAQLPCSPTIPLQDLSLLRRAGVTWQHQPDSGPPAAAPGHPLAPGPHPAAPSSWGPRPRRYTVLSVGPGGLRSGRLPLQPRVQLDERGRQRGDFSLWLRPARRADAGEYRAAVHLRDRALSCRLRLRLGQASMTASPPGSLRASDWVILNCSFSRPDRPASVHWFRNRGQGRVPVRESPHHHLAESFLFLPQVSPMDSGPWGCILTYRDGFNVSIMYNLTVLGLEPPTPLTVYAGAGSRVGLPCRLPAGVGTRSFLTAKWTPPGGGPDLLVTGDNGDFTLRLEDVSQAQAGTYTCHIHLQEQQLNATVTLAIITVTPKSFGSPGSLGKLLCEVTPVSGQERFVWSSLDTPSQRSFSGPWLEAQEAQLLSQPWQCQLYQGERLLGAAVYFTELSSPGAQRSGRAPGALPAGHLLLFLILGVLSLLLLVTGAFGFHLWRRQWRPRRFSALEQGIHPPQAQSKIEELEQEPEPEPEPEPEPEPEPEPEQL
In the case of B1, the EC50 is reported as 0.0288 µg/mL and 0.4 nM and the OD max is reported as 1.3 OD. With B2 the EC50 was 0.0354 µg/mL and 0.5 nM and the OD max was 1.4 OD. For B3, the EC50 was 0.0603 µg/mL and 0.8 nM and the OD max was 1.2 OD. With B4 the EC50 was 0.0375 µg/mL and 0.5 nM and the OD max was 1.3 OD.

What follows are binders tested against T3, recombinant human LAG3 Fc Chimera Protein (R&D Systems, 2319-L3) (human, UniProt P18627 23-450) (assay: ELISA, plate coated with human LAG3 Fc chimera).
T3 construct: Bought reagent
T3 sequence (looked up): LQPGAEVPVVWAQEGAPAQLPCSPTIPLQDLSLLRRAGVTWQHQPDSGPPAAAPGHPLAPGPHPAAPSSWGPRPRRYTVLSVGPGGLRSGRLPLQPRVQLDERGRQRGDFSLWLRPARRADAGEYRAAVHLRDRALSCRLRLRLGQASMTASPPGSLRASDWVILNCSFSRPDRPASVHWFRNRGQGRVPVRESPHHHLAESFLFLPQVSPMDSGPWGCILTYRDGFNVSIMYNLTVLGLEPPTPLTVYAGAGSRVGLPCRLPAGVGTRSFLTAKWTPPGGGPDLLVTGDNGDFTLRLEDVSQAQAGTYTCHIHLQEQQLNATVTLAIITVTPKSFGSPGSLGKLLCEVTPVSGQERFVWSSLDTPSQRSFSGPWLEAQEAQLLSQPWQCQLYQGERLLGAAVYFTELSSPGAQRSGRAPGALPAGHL
For B1, the EC50 was 0.0194 µg/mL and 0.3 nM and the OD max was 1.2 OD. B2 was tested, and the EC50 was 0.0145 µg/mL and 0.2 nM and the OD max was 1.2 OD. For B3, the EC50 was 0.143 µg/mL and 1.9 nM and the OD max was 1.1 OD. B4 was tested, and the EC50 was 0.121 µg/mL and 1.6 nM and the OD max was 1.9 OD.

Each binder was assayed against T4, cynomolgus LAG3 on transiently transfected HEK293F cells (cynomolgus) (assay: flow cytometry on HEK293F cells transfected with cyno LAG3, 10 µg/ml).
T4 construct: whole, on cells; also called cyno LAG3; cynomolgus Lag3-positive HEK cells
B1 was tested, and the “LAG3 positive cells (%)” value was 68.8% and the “Signal intensity (Geo Mean)” value was 2060 Geo Mean. For B2, the “LAG3 positive cells (%)” value was 63.6% and the “Signal intensity (Geo Mean)” value was 1980 Geo Mean.

Each binder was assayed against T3, recombinant human LAG3 Fc Chimera … (assay: SPR (Biacore), aVH-Fc captured by anti-human Fc, human LAG-3 Fc chimera as analyte, 25 C).
Work on B1 yielded a koff of 0.00019 s⁻¹ and a t1/2 of 1.02 h. B2 was tested, and the koff was 0.00018 s⁻¹ and the t1/2 was 1.1 h. B3 was tested, and the koff was 6.8e-05 s⁻¹ and the t1/2 was 2.83 h. Work on B4 yielded a koff of 2.4e-05 s⁻¹ and a t1/2 of 8.16 h.

What follows are binders tested against T5, soluble human Lag3-IgG1-Fc with biotinylated C-terminal Avi-tag (human, biotin on the C-terminal Avi-tag) (assay: A375 MHCII competition ELISA, biotinylated Lag3 250 ng/ml; competitor MHCII on A375 cells).
T5 construct: also called LAG3-Fc-avi; biotinylated LAG3-Fc antigen
B1 was tested, and the IC50 was 0.0762 µg/mL and 1 nM. In the case of B2, the IC50 is reported as 0.104 µg/mL and 1.4 nM. For B3, the IC50 was 0.155 µg/mL and 2.1 nM. For B4, the IC50 was 0.086 µg/mL and 1.1 nM.

The binders below were run against T6, biotinylated MCSP antigen (amino acids 1553 to 2184 of matured melanoma-associated chondroitin sulfate … (Homo sapiens (Human), UniProt Q6UVK1 1582-2213, limits assumed, biotin on the C-terminal avi-tag)) (assay: SPR (ProteOn XPR36), biotinylated MCSP captured on NLC chip, purified aVH as analyte, 25 C).
T6 construct: The entry may include the leader; also called recombinant MCSP
T6 sequence: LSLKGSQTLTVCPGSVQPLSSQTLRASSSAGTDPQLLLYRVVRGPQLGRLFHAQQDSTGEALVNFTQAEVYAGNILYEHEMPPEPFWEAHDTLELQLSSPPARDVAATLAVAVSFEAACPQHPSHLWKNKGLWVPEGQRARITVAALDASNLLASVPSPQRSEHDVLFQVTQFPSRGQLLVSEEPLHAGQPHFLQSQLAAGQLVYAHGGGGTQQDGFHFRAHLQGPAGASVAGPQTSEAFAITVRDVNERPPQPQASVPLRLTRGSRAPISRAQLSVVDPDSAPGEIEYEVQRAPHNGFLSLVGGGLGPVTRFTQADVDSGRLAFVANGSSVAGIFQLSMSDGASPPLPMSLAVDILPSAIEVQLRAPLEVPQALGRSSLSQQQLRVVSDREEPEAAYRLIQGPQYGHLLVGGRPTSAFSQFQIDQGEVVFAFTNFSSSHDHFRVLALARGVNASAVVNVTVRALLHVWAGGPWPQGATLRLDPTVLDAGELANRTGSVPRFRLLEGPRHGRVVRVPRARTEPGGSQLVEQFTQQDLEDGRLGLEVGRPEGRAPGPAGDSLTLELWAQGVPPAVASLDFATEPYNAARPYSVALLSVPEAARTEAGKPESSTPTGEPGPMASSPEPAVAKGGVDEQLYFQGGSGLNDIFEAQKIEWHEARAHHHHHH
B5 gave a Kd of 8 nM, a koff of 0.00339 s⁻¹ and a kon of 458000 M⁻¹ s⁻¹. Work on B6 yielded a Kd of 109 nM, a koff of 0.0163 s⁻¹ and a kon of 150000 M⁻¹ s⁻¹. In the case of B7, the Kd is reported as 48 nM, the koff is reported as 0.0142 s⁻¹ and the kon is reported as 295000 M⁻¹ s⁻¹.

What follows are binders tested against T5, soluble human Lag3-IgG1-Fc with … (assay: A375 MHCII competition ELISA at 3 µg/ml, biotinylated Lag3 250 ng/ml; competitor MHCII on A375 cells).
For B1, the “% Inhibition” value was 95.5%. B2 was tested, and the “% Inhibition” value was 91.7%. For B3, the “% Inhibition” value was 91%. B4 was tested, and the “% Inhibition” value was 97.2%.
